Reference: patent publication US20110262525A1, “METHODS OF TREATMENT” (SCHERING CORPORATION, priority 2006, published 2011)

Assays:
[1] = system: BT-39 xenograft (Glioblastoma); assay: PPTP in vivo xenograft BT-39; conditions: BT-39 (Glioblastoma) xenograft, 0.5 mg per mouse ip twice weekly for four weeks
Protocol: The PPTP includes a molecularly characterized in vitro panel of cell lines (n=27) and in vivo panel of xenografts (n=61) representing most of the common types of childhood solid tumors and childhood ALL (acute lymphoblastic leukemia). LCF/HCA anti-IGF1R antibody was tested against the PPTP in vitro panel at concentrations ranging from 0.01 nM to 100 nM; and was tested against the PPTP in vivo panel at a dose of 0.5 mg per mouse administered twice weekly for four weeks via intraperitoneal injection. Three measures of antitumor activity were used: 1) response criteria modeled after the clinical setting; 2) treated-to-control (T/C) tumor volume at day 21; and 3) a time to event (4-fold increase in tumor volume) measure based on the median EFS of treated and control lines (intermediate activity required EFS (event-free survival) T/C>2, and high activity additionally required a net reduction in median tumor volume at the end of the experiment).
Stage 1 testing involved testing an agent across the entire PPTP panel of childhood cancer xenograft lines at its maximum tolerated dose (MTD) or at a dose selected based on PK/PD (pharmacokinetic/pharmacodynamic) studies using adult preclinical models.
In vivo solid tumor testing: For each xenograft line, 10 mice bearing subcutaneous (SC) tumors initiated treatment when the tumors were between 0.2-0.5 cm^3 in volume. Two perpendicular tumor diameters were measured at once weekly intervals with digital vernier calipers. Assuming tumors to be spherical, volumes were calculated from the formula (π/6)×d3, where d represented the mean diameter.
Drug: LCF/HCA was dissolved in 20mM sodium acetate pH 5 buffer containing 150 mM sodium chloride, and administered intraperitoneally twice weekly for 4 consecutive weeks at a dose of 0.5 mg per animal. […]
(§1) Median Group Response: Each individual mouse in each treatment group was assigned a response score (see Tables above) and a median score for the treatment group was calculated and then each treatment group was assigned an overall response according to the table below. […]

[2] = system: ALL-2 xenograft (ALL B-precursor); assay: PPTP in vivo leukemia xenograft ALL-2; conditions: ALL-2 (ALL B-precursor) xenograft; 0.5 mg per mouse ip twice weekly for four weeks
Protocol: The PPTP includes a molecularly characterized in vitro panel of cell lines (n=27) and in vivo panel of xenografts (n=61) representing most of the common types of childhood solid tumors and childhood ALL (acute lymphoblastic leukemia). LCF/HCA anti-IGF1R antibody was tested against the PPTP in vitro panel at concentrations ranging from 0.01 nM to 100 nM; and was tested against the PPTP in vivo panel at a dose of 0.5 mg per mouse administered twice weekly for four weeks via intraperitoneal injection. […]
In vivo acute lymphoblastic leukemia testing: For each xenograft line, 8 mice were inoculated with 3-5×10^6 mononuclear cells purified from the spleens of secondary recipient mice. Engraftment was monitored weekly by flow cytometry, and treatment was initiated when the proportion of human CD45+ cells in the peripheral blood reached 1%. The proportion of human CD45+ cells in the peripheral blood was monitored weekly throughout the course of treatment. […]
as §1

B1: LCF/HCA: fully human anti-IGF1R antibody comprising the mature 19D12/15H12 light chain F (LCF) and mature heavy chain A (HCA) (antibody, V domains shown)
VH: EVQLVQSGGGLVHPGGSLRLSCAASGFTFSSFAMHWVRQAPGKGLEWISVIDTRGATYYADSVKGRFTISRDNAKNSLYLQMNSLRAEDMAVYYCARLGNFYYGMDVWGQGTTVTVSS
VL: EIVLTQVPDFQSVTPKEKVTITCRASQSIGSSLHWYQQKPDQSPKLLIKYASQSLSGVPSRFSGSGSGTDFTLTINSLEAEDAAAYYCHQSSRLPHTFGGGTKVEIKRT
EFS T/C [1]: 1.1 | Median Final RTV [1]: >4 | Tumor Volume T/C ([1]; day 21): 0.87 | EFS T/C [2]: 0.7 | Median Final RTV [2]: >25
